{
  "source": "paper doi:10.1101/2020.09.01.278846",
  "about": "(bioRxiv, 2020)",
  "proteins": {"B1": {"name": "hs PCDH24 EC1-MAD10Fc (Fc fusion)", "chain": "NVAPKFLANMTSVILPEDLPVGAQAFWLVAEDQDNDPLTYGMSGPNAYFFAVTPKTGEVKLASALDYETLYTFKVTISVSDPYIQVQREMLVIVEDRNDNAPVFQNTAFSTSINETLPVGSVVFSVLAVDKDMGSAGMVVYSIEKVIPSTGDSEHLFRILANGSIVLNGSLSYNNKSAFYQLELKACDLGGMYHNTFTIQCSLPVFLSISVVDQPDLDPQFVREFYSASVAEDAAKGTSVLTVEAVDGDKGINDPVIYSISYSTRPGWFDIGADGVIRVNGSLDREQLLEADEEVQLQVTATETHLNIYGQEAKVSIWVTVRVMDVNDHKPEFYNCSLPACTFTPEEAQVNFTGYVDEHASPRIPIDDLTMVVYDPDKGSNGTFLLSLGGPDAEAFSVSPERAVGSASVQVLVRVSALVDYERQTAMAVQVVATDSVSQNFSVAMVTIHLRDINDHRPTFPQSLYVLTVPEHSATGSVVTDSIHATDPDTGAWGQITYSLLPGNGADLFQVDPVSGTVTVRNGELLDRESQAVYYLTLQATDGGNLSSSTTLQIHLLDINDNAPVVSGSYNIFVQEEEGNVSVTIQAHDNDEPGTNNSRLLFNLLPGPYSHNFSLDPDTGLLRNLGPLDREAIDPALEGRIVLTVLVSDCGEPVLGTKVNVTITVEDINDNLPIFNQSSYNFTVKEEDPGVLVGVVKAWDADQTEANNRISFSLSGSGANYFMIRGLVLGAGWAEGYLRLPPDVSLDYETQPVFNLTVSAENPDPQGGETIVDVCVNVKDVNDNPPTLDVASLRGIRVAENGSQHGQVAVVVASDVDTSAQLEIQLVNILCTKAGVDVGSLCWGWFSVAANGSVYINQSKAIDYEACDLVTLVVRACDLATDPGFQAYSNNGSLLITIEDVNDNAPYFLPENKTFVIIPELVLPNREVASVRARDDDSGNNGVILFSILRVDFISKDGATIPFQGVFSIFTSSEADVFAGSIQPVTSLDSTLQGTYQVTVQARDRPSLGPFLEATTTLNLFTVDQSYRSRLQFSTPKEEVGANRQAINAALTQATRTTVYIVDIQDIDSAARARPHSYLDAYFVFPNGSALTLDELSVMIRNDQDSLTQLLQLGLVVLGSQESQESDLSKQLIS"}},
  "molecular_target": "the molecule itself",
  "assay": "bead aggregation assay",
  "data": [
    {"protein": "B1", "values": [
      {"measurement": "binding result", "value": "binds"}
    ]}
  ]
}
